The test system of the series is MS2 coat protein. Nature of the series: apparent KD of MS2 coat protein; higher = weaker reporter binding. Particulars: Eterna round: R107. An outline of the steps:
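For every design, apparent KD is the median of normalised binding-curve fits from its clusters. The RNA switches were transcribed on-chip from Illumina sequencing clusters and titrated with SNAP-549-labelled MS2 coat protein (twofold steps, 0.7 or 1.5 nM to 3 µM; 0.8–1.5 h to 10–20 min per step). Titrations used 100 mM Tris-HCl pH 7.5, 80 mM KCl, 4 mM MgCl2, without or with constant ligand.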

The mark [1] stands for this setting: input ligand: theophylline 20 uM.
Where [2] appears, read: input ligand: theophylline 2 mM.
[3] abbreviates: input ligand: tryptophan 2.4 mM.

Turning to “CGCCACUCGAGUGAUCCUCACGAGUGGCUACGAGGACCGGUACGGCCGCCACUCGAAUUAACAUGAGGAUCACCCAUGUAAUCUA [Brourdmod08]”, the “apparent KD of MS2 coat protein” value by setting is: (input ligand: arginine 13.2 mM) 30 nM; under setting [1], 200 nM; under setting [2], 322 nM.
Take “CGCCGCGGGAGAAGGAGCGCGAUAACAUAACAUGAGGAUCACCCAUGUAAGAAAUUAAUCAUGCAGGUAGGUCGCUCCCGCGGCG [Same State Arginine B GF 4]”: the “apparent KD of MS2 coat protein” value turned out to be 16.3 nM (input ligand: arginine 13.2 mM); 19.5 nM (input ligand: none); 26.5 nM under setting [1]; 23.3 nM under setting [2]; 22.5 nM under setting [3].
The like results for “CGGUCGGUCGGCCGGUGAUUAUGGGAUGAAGGAGCGUGGGAAGCUACAGGUAGGUCGCAUCCGAAAGAUGAGGAUCACCCAUCUU [SSArg A #24Alt-Ms2 Mod]” were, in that order, 24.4 nM, 30.3 nM, 34.4 nM, 46.4 nM and 21.5 nM.
Consider “CGGUUUGUGAUGGAUACCAGCAGAGAAAAUGUUUAUCCUAACAUGAGGAUCACCCAUGUGUGCCCUUGGCAGCUGUUGUGGGCUG [8.W]”, for which the “apparent KD of MS2 coat protein” value is, setting by setting: (input ligand: arginine 13.2 mM) 46 nM; under setting [1], 72.6 nM; under setting [3], 49.7 nM.
“CGUAUGUAGACGGCCGCCACUGGAACAAGAGGAUCACCCUUGUACAGGGUGGGACUAUCGAGAGUCAGGACCGGGUCUACAUACA [Tryp B Ex t2]”: the “apparent KD of MS2 coat protein” value reads like this: (input ligand: arginine 13.2 mM) 112 nM; (input ligand: none) 150 nM; under setting [1], 190 nM; under setting [2], 140 nM; under setting [3], 19.7 nM.
Regarding “CGUGAUACUGGUAUACUCUGAAGAUCAAUUCGAGGACCGGUACGGCCGCCACUCGUUAGUAGACAUGAGGAUCACCCAUGUUAGU [theeternabot_exclusion_MS2_Trp_A_48]”, the “apparent KD of MS2 coat protein” value is 11.8 nM (input ligand: arginine 13.2 mM), 20.6 nM under setting [1] and 17.7 nM under setting [2].
The like results for “CUAAUUAUAUCGGCCGCCACUUACUCAUGAGGUAACAACAUGAGGAUCACCCAUGUUUGAGGAUCAAGGACCGGGAUAUAAUUAG [AstrosSSTry#24]” were, in that order, 30.5 nM, 33 nM and 34.9 nM.
For “CUAUAAGUACCGGUCCUCAGAUCCUCAUGACGAGGACCGGUACGGCCGCCACUCGAAACAUGAGGAUCACCCAUGUAAUAACAUU [Brourdmod22]”, the “apparent KD of MS2 coat protein” value came out at 18.5 nM (input ligand: arginine 13.2 mM), 30.1 nM under setting [1] and 24.9 nM under setting [2].
Consider “CUAUAAGUACCGGUCCUCAGAUCCUCAUGACGAGGACCGGUACGGCCGCCACUCGAAACAUGAGGAUCACCCAUGUAAUAAUACC [Brourdmod16]”, for which the “apparent KD of MS2 coat protein” value was 17.5 nM (input ligand: arginine 13.2 mM), 47.5 nM under setting [1] and 62.6 nM under setting [2].
With “CUGCCAUGCAGAGAUACCAGUGAGCUCAGAACAUGAGGAUCACCCAUGUAGGUUGCCGAUCACCCUUGGCAGCUCUGCAUGGCAG [*$+%!]”, the “apparent KD of MS2 coat protein” value is 38.7 nM (input ligand: arginine 13.2 mM); 30.8 nM (input ligand: none); 28.4 nM under setting [1]; 10.9 nM under setting [2]; 29.6 nM under setting [3].
For the sequence “CUGUUUGUUUGGGUCUGUCAAAAGAACGAUACCAGCCGCAUUAUGGGCCCUUGGCAGCGUAGGACAUGAGGAUCACCCAUGUACG [theeternabot_exclusion_MS2_Theo_A_16]”, the “apparent KD of MS2 coat protein” value (input ligand: arginine 13.2 mM) worked out at 16 nM, the “apparent KD of MS2 coat protein” value under setting [1] was 22 nM and the “apparent KD of MS2 coat protein” value under setting [3] turned out to be 16.2 nM.
On to “GAACAAGGUUUCUUGUUCGGUCGCUGAGAAGGAGCGCGGUAACCCGCAGGUAGGUCGCUCAGAAAUACAUGAGGAUCACCCAUGU [Anaa]”, for which the “apparent KD of MS2 coat protein” value runs as follows: (input ligand: arginine 13.2 mM) 17.4 nM; (input ligand: none) 18.7 nM; under setting [1], 26.4 nM; under setting [2], 21.7 nM; under setting [3], 17.8 nM.
Turning to “GAAUCUACAAACGAUACCAGAUCCGGCUGCCACAUGAGGAUCACCCAUGUCUAGCGACUCAUCCCUUGGCAGCGUGUGCAUCCCG [theeternabot_sameState_MS2_Theo_B_37]”, the “apparent KD of MS2 coat protein” value runs as follows: (input ligand: arginine 13.2 mM) 147 nM; under setting [1], 612 nM; under setting [3], 629 nM.
On to “GAAUUAUGACGUGAUACCAGUGGUCAAUACUGGGAACUUAACAUGAGGAUCACCCAUGUCCACCCUUGGCAGCACGCUGACAAUC [theeternabot_exclusion_MS2_Theo_B_14]”, for which the “apparent KD of MS2 coat protein” value was 43.5 nM (input ligand: arginine 13.2 mM), 133 nM under setting [1] and 79.6 nM under setting [3].
As to “GACCUUGCCUGAAGGAGCGAGGUAAAUAGGGUUGAGCAUACAUGAGGAUCACCCAUGUGGCCUCAGGUAGGUCGCAGGUAGGACA [Exclusion Arginine B GF30]”, the “apparent KD of MS2 coat protein” value by setting is: (input ligand: arginine 13.2 mM) 97.1 nM; (input ligand: none) 114 nM; under setting [1], 224 nM; under setting [2], 189 nM; under setting [3], 114 nM.
As to “GACCUUGCGGGCGCCCGCAAGGUCGCGGAUACCAGCGAGGUCCAUCGCCCUUGGCAGCCGAACAUGAGGAUCACCCAUGUCGGUU [Same State - Theophylline A Attempt #5 (HarryS)]”, the “apparent KD of MS2 coat protein” value by setting is: (input ligand: arginine 13.2 mM) 8.39 nM; under setting [1], 12.8 nM; under setting [3], 11 nM.
For the sequence “GACGGCUCGACGGCCGCCACUCCCUCCGACUGAAGGCACAGUGGACAUGAGGAUCACCCAUGUCCGAGGACCGGGUCGAUCCUGG [theeternabot_sameState_MS2_Trp_B_32]”, the “apparent KD of MS2 coat protein” value reads like this: (input ligand: arginine 13.2 mM) 14.5 nM; under setting [1], 19.3 nM; under setting [2], 18.3 nM.

Source of the values: the supplement of paper PMC9170038.
